Reference: paper PMC9346951 (Nature, 2022)
Positions count from the first letter of the chain named. Numbers in names are those of the source. Where two headings read alike, the source gives them in different places.

Assays:
TGA3 NID = target: T1, TGA3 NID (Arabidopsis thaliana, UniProt Q39234); experiment: X-ray crystal structure; format: binding; settings: co-purified from E. coli expression; crystals at pH 5.0, 20 °C
T1 sequence (Q39234 160-384): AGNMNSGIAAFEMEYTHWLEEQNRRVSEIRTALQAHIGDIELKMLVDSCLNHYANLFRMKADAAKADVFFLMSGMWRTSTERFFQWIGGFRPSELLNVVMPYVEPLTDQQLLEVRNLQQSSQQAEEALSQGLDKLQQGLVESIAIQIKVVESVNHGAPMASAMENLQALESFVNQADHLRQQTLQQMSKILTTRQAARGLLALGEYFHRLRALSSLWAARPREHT

[1] = target: T2, Full-length Arabidopsis thaliana NPR1 (NPR1–Strep, insect cells) (Arabidopsis thaliana), P93002; experiment: cross-linking; settings: remark: other sources report otherwise
T2 chain: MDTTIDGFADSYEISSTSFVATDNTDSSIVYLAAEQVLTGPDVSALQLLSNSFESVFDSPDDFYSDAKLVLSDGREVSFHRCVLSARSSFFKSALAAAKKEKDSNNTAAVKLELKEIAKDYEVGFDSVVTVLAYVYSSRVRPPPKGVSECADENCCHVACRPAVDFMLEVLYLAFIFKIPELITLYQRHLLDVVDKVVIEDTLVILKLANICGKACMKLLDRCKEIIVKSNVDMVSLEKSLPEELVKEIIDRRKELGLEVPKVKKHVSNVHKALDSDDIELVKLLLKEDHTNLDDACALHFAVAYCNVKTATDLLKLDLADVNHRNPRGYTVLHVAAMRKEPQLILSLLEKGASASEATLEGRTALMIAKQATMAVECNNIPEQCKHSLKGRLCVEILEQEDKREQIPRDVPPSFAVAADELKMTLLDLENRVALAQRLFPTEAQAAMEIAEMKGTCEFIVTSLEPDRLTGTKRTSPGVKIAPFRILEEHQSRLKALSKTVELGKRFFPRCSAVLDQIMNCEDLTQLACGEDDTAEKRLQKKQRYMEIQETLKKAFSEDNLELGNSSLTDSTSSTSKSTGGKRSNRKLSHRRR

[2] = target: the molecule itself; experiment: oxidation with hydrogen peroxide, non-reducing SDS–PAGE
[3] = target: T3, Full-length Arabidopsis NPR1 (NPR1–Strep3, E. coli) (Arabidopsis thaliana, UniProt P93002 1-593); experiment: cryo-EM structure
T3 sequence (looked up): T2 chain

NPR1 = NPR1 (Arabidopsis thaliana, UniProt P93002 1-593); experiment: EMSA
TGA3;NPR1 = TGA3;NPR1 (Arabidopsis thaliana;Arabidopsis …, UniProt Q39234;P93002 87-384;1-593, |); experiment: EMSA
TGA3 [4] = target: T4, TGA3 (Arabidopsis thaliana, UniProt Q39234 87-384); experiment: EMSA
T4 sequence: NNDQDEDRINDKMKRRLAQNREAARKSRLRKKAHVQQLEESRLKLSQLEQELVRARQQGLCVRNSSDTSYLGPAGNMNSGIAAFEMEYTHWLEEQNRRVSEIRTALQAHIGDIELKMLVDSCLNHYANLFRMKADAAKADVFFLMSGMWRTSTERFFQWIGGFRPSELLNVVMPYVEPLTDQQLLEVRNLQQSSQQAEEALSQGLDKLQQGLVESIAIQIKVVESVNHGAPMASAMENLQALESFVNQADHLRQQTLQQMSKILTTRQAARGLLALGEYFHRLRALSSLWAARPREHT

TGA3 [5] = target: T4, TGA3; experiment: EMSA; remark: listed apart in the source

CCCCCCCCCCCCCCCC(=O)O [palmitic acid]
X-ray crystal structure (1.5 Å); LC-ESI/MS of extracted lipid (TGA3 NID): a palmitic acid was found inside the NID

B1: Full-length Arabidopsis thaliana NPR1 (NPR1–Strep, insect cells), P93002 1-593 (natural protein)
chain: T2 chain
stoichiometry N [1]: 2

B2: NPR1 BTB/BHB (Thr39–Lys262) npr1(C82A) (domain or fragment, Arabidopsis thaliana, UniProt P93002 39-262, looked up)
chain: TGPDVSALQLLSNSFESVFDSPDDFYSDAKLVLSDGREVSFHRAVLSARSSFFKSALAAAKKEKDSNNTAAVKLELKEIAKDYEVGFDSVVTVLAYVYSSRVRPPPKGVSECADENCCHVACRPAVDFMLEVLYLAFIFKIPELITLYQRHLLDVVDKVVIEDTLVILKLANICGKACMKLLDRCKEIIVKSNVDMVSLEKSLPEELVKEIIDRRKELGLEVPK
binding result [2]: binds

B3: NPR1 BTB/BHB (Thr39–Lys262) npr1(C212V/C216A/C223L) (domain or fragment, Arabidopsis thaliana, UniProt P93002 39-262, looked up)
chain: B2 chain with A44C, C174V, C178A, C185L
binding result [2]: binds

B4: Arabidopsis TGA3 (Asn87–Thr384) (domain or fragment, Arabidopsis thaliana, UniProt Q39234 87-384, looked up)
chain: T4 sequence
binding result [3]: binds

B5: WT NPR1 BTB/BHB (Thr39–Lys262) (domain or fragment, Arabidopsis thaliana, UniProt P93002 39-262, looked up)
chain: B2 chain with A44C
binding result [2]: binds

B6: LS5/LS7 (dsDNA)
DNA 1: GGGCTATGACGTAAGTAAAATAGTGACGTAGAGAGGG
DNA 2: CCCTCTCTACGTCACTATTTTACTTACGTCATAGCCC
binding result (NPR1): no binding
binding result (TGA3;NPR1): binds
binding result (TGA3 [4]): binds

B7: LS5-/LS7- (dsDNA)
DNA 1: GGGCTAAAAAAAAAGTAAAATAGAAAAAAAAAGAGGG
DNA 2: CCCTCTTTTTTTTTCTATTTTACTTTTTTTTTAGCCC
binding result (TGA3 [5]): no binding
